The text below walks through data of US20210155670A1 (University of California, published 2021).

Assay [1] concerns the target T1, single-chain MHC-I (beta2 microglobulin-(GGGS)4-HLA-A*02:01 ectodomain-AviTag), TEV-digested (unzippered), … (human).
T1 construct: also called peptide receptive MHC-I complex; unzippered MHC-I
Kind of assay: size exclusion chromatography after TEV cleavage.

The target of assay [2] is single-chain HLA-A*24:02 (beta2 microglobulin-linker-HLA-A*24:02 ectodomain-AviTag), TEV-digested, CHO-derived (human). Briefly: co-expression, Strep tag purification, TEV digestion, size exclusion chromatography. (In general: In gel filtration, larger molecules generally elute earlier.)
In assay [3] the target is T2, Whole Z1 construct (B2m, HLA-A*02:01, FOS), leucine-zippered single-chain MHC-I (human).
T2 construct: also called single-chain-Fos; single-chain MHC-I-B2M protein
Briefly: co-expression in CHO cells, purification by the Strep tag on TAPBPR, SDS PAGE.

B1: TAPBPR (luminal domain, C94A), TEV-digested (unzippered) (other)
chain: KPHPAEGQWRAVDVVLDCFLVKDGAHRGALASSEDRARASLVLKQVPVLDDGSLEDFTDFQGGTLAQDDPPIIFEASVDLVQIPQAEALLHADASGKEVTCEISRYFLQMTETTVKTAAWFMANVQVSGGGPSISLVMKTPRVAKNEVLWHPTLNLPLSPQGTVRTAVEFQVMTQTQSLSFLLGSSASLDCGFSMAPGLDLISVEWRLQHKGRGQLVYSWTAGQGQAVRKGATLEPAQLGMARDASLTLPGLTIQDEGTYICQITTSLYRAQQIIQLNIQASPKVRLSLANEALLPTLICDIAGYYPLDVVVTWTREELGGSPAQVSGASFSSLRQSVAGTYSISSSLTAEGSAGATYTCQVTHISLEEPLGASTQVVPPERRLEGAGGSGGGGSGGGASGGGGSENLYFQS
notes: also called un-zippered (TEV cleaved) TAPBPR; chaperone TAPBPR
Regarding B1, the binding result in assay [1] and in assay [2] was “binds” throughout.

B2: Whole Z2 construct (TAPBPR, JUN), leucine-zippered TAPBPR with Strep tags (other)
chain: KPHPAEGQWRAVDVVLDCFLVKDGAHRGALASSEDRARASLVLKQVPVLDDGSLEDFTDFQGGTLAQDDPPIIFEASVDLVQIPQAEALLHADASGKEVTCEISRYFLQMTETTVKTAAWFMANVQVSGGGPSISLVMKTPRVAKNEVLWHPTLNLPLSPQGTVRTAVEFQVMTQTQSLSFLLGSSASLDCGFSMAPGLDLISVEWRLQHKGRGQLVYSWTAGQGQAVRKGATLEPAQLGMARDASLTLPGLTIQDEGTYICQITTSLYRAQQIIQLNIQASPKVRLSLANEALLPTLICDIAGYYPLDVVVTWTREELGGSPAQVSGASFSSLRQSVAGTYSISSSLTAEGSAGATYTCQVTHISLEEPLGASTQVVPPERRLEGAGGSGGGGSGGGASGGGGSENLYFQSSGGGGSKVDGGGGGRIARLEEKVKTLKAQNSELASTANMLREQVAQLKQVMNWSHPQFEKGGGSGGGSGGSAWSHPQFEKAA
For B2, the binding result in assay [3] is given as “binds”.
